In patent publication US20210130436A1 (published 2021):

Columns and labels:
[1] = biological target: T1, CD28 (endogenously expressed on Jurkat/IL2 reporter cells) (human, UniProt P10747 19-220); assay: flow cytometry, Jurkat/IL2 reporter cells (endogenous CD28), PE anti-human Fc
T1 construct: Endogenous CD28 of Jurkat cells; also called human CD28

[2] = biological target: T2, human PD-L1 (full-length, expressed on CHO cells) (human, UniProt Q9NZQ7 19-290); assay: flow cytometry, CHO cells expressing huPD-L1, PE anti-human Fc
T2 construct: also called huPD-L1; CD274
T2 sequence (Q9NZQ7 19-290): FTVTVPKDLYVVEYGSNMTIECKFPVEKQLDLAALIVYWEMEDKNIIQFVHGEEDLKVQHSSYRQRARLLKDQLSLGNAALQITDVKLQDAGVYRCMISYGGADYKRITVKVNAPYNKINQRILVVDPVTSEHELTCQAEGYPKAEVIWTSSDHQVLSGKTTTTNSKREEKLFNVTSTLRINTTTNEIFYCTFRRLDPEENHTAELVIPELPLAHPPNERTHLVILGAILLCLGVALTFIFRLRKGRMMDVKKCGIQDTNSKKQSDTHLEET

[3] = biological target: T2, human PD-L1 (full-length, expressed on …); assay: flow cytometry MFI at 33.3 nM relative to WT CD80 ECD-Fc (R&D), CHO/huPD-L1 cells
[4] = biological target: T3, human CTLA4 (full-length, expressed on CHO cells) (human, UniProt P16410 36-223); assay: flow cytometry MFI at 33.3 nM relative to WT CD80 ECD-Fc (R&D), CHO/huCTLA4 cells
T3 construct: also called huCTLA4
T3 sequence (P16410 36-223): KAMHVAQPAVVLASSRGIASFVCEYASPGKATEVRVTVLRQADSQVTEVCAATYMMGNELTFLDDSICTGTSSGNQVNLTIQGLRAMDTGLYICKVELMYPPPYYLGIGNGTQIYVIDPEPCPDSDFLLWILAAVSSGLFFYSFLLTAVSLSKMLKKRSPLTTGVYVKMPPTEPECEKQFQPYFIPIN

[5] = biological target: T2, human PD-L1 (full-length, expressed on …); assay: flow cytometry, MFI on CHO/huPD-L1 cells over MFI on Jurkat (CD28) cells, 33.3 nM
[6] = biological target: T3, human CTLA4 (full-length, expressed on …); assay: flow cytometry, CHO cells expressing huCTLA4, PE anti-human Fc
[7] = biological target: T1, CD28 (endogenously expressed on …); assay: flow cytometry MFI at 33.3 nM relative to WT CD80 ECD-Fc (R&D), Jurkat cells

Row | Binder | MFI at 33.3 nM [1] | MFI at 33.3 nM [2] | Fold change to WT [3] | Fold change to WT CD80 [4] | Ratio of PDL1:CD28 [5] | MFI at 33.3 nM [6] | Fold change to WT [7]
1 | variant CD80 IgV-Fc E35D/M47I/E77A/L85Q/R94W (Fc fusion, not shown: a dimerising Fc or GST) VIHVTKEVKEVATLSCGHNVSVEELAQTRIYWQKDKKMVLTMMSGDINIWPEYKNRTIFDITNNLSIVILALRPSDAGTYECVVQKYEKDAFKWEHLAEVTLSVKAD | 272 MFI | 64500 MFI | 8.12 fold | 1.38 fold | 238 ratio | 247000 MFI | 0.04 fold
2 | variant CD80 IgV-Fc H18Y/E35D/M47L (Fc fusion, not shown: a dimerising Fc or GST) VIHVTKEVKEVATLSCGYNVSVEELAQTRIYWQKDKKMVLTMMSGDLNIWPEYKNRTIFDITNNLSIVILALRPSDEGTYECVVLKYEKDAFKREHLAEVTLSVKAD | 5070 MFI | 44200 MFI | 5.56 fold | 1.59 fold | 9 ratio | 284000 MFI | 0.66 fold
3 | variant CD80 IgV-Fc H18Y/A26E/Q33L/E35D/M47L/L85Q (Fc fusion, not shown: a dimerising Fc or GST) VIHVTKEVKEVATLSCGYNVSVEELEQTRIYWLKDKKMVLTMMSGDLNIWPEYKNRTIFDITNNLSIVILALRPSDEGTYECVVQKYEKDAFKREHLAEVTLSVKAD | 272 MFI | 76600 MFI | 9.64 fold | 0.01 fold | 282 ratio | 2090 MFI | 0.04 fold
4 | variant CD80 IgV-Fc H18Y/V20A/Q33L/E35D/M47V/Y53F (Fc fusion, not shown: a dimerising Fc or GST) VIHVTKEVKEVATLSCGYNASVEELAQTRIYWLKDKKMVLTMMSGDVNIWPEFKNRTIFDITNNLSIVILALRPSDEGTYECVVLKYEKDAFKREHLAEVTLSVKAD | 260 MFI | 121000 MFI | 15.2 fold | 0.02 fold | 463 ratio | 2880 MFI | 0.03 fold
5 | variant CD80 IgV-Fc H18Y/Q33L/E35D/M47I (Fc fusion, not shown: a dimerising Fc or GST) VIHVTKEVKEVATLSCGYNVSVEELAQTRIYWLKDKKMVLTMMSGDINIWPEYKNRTIFDITNNLSIVILALRPSDEGTYECVVLKYEKDAFKREHLAEVTLSVKAD | 295 MFI | 47800 MFI | 6.02 fold | 0.03 fold | 162 ratio | 5540 MFI | 0.04 fold
6 | variant CD80 IgV-Fc Q33L/E35D/M47I/L85Q (Fc fusion, not shown: a dimerising Fc or GST) VIHVTKEVKEVATLSCGHNVSVEELAQTRIYWLKDKKMVLTMMSGDINIWPEYKNRTIFDITNNLSIVILALRPSDEGTYECVVQKYEKDAFKREHLAEVTLSVKAD | 287 MFI | 63900 MFI | 8.05 fold | 0.11 fold | 222 ratio | 20500 MFI | 0.04 fold
7 | variant CD80 IgV-Fc E35D/M47L/L85Q (Fc fusion, not shown: a dimerising Fc or GST) VIHVTKEVKEVATLSCGHNVSVEELAQTRIYWQKDKKMVLTMMSGDLNIWPEYKNRTIFDITNNLSIVILALRPSDEGTYECVVQKYEKDAFKREHLAEVTLSVKAD | 646 MFI | 33200 MFI | 4.18 fold | 1.88 fold | 51 ratio | 336000 MFI | 0.08 fold
8 | variant CD80 IgV-Fc Q27H/Q33L/E35D/M47V/N55D/L85Q/K89N (Fc fusion, not shown: a dimerising Fc or GST) VIHVTKEVKEVATLSCGHNVSVEELAHTRIYWLKDKKMVLTMMSGDVNIWPEYKDRTIFDITNNLSIVILALRPSDEGTYECVVQKYENDAFKREHLAEVTLSVKAD | 269 MFI | 14800 MFI | 1.86 fold | 0.31 fold | 55 ratio | 56100 MFI | 0.04 fold
